Among the data in paper PMC6692331 are stoichiometry N values, retold here.

Test [1] concerns the target carboxymethylated humanized ferritin (S-CMHumFt) (Archaeoglobus fulgidus | human). As to the kind of experiment: SEC; HP-SEC with UV (220, 410 nm) and fluorimetric detection; ferritin dissociated without MgCl2, mixed with a 20 fold molar excess of Cyt C, re-assembled with 50 mM MgCl2; mobile phase 20 mM HEPES pH 7.4, 50 mM MgCl2; Cyt C signal at the retention time of the ferritin 24-mer (encapsulation in the cavity). A general note: SEC sorts molecules by how far they enter the pores of the column.

Test [2] has as its target humanized Archaeoglobus ferritin (HumFt) (Archaeoglobus fulgidus | human). Described as above.

Regarding “cytochrome C from equine heart (from UniProt P00004 1-105) (natural protein)”, the figures for the stoichiometry N in test [1] and in test [2] were 1.4 Cyt C:HumFt and 0.43 Cyt C:HumFt, respectively.

By stoichiometry N is commonly meant the number of molecules, sites or subunits per partner or assembly.
